Self-cleavage data for 32 variants are collected here from the RNAGym collection of RNA variant scans (doi:10.7554/elife.80360).

First the molecules themselves.
B1: HDV Ribozyme (parent)
chain: GGCCGGCAUGGUCCCAGCCUCCUCGCUGGCGCCGGCUGGGCAACAUUCCGAGGGGACCGUCCCCUCGGUAAUGGCGAAUGGGACCCA

Variants of B1 are the subject of this data set. Nature of the data set: self-cleavage, relative activity (ratio to wild type); higher = more cleavage; co-transcriptional.
Regarding GGCCGGCAUGGUCCCAGCCUCCUCGCUGGCGCCGGCUGCGCAACAUUCCGAGGGGACCGUCCCCUCGGUAAUGGCGAAUGGCACCCA [G39C G82C], the self-cleavage was 0.0997.

As to GGCCGGCAUGGUCCCAGCCUCCUCGCUGGCGCCGGCUGCGCAACAUUCCGAGGGCACCGUCCCCUCGGUAAUGGCGAAUGGGACCCA [G39C G55C], the self-cleavage came out at 0.31.

Regarding GGCCGGCAUGGUCCCAGCCUCCUCGCUGGCGCCGGCUGCGCAACAUUCCGAGGGGACCGUCCCCUCGGUAAUGGCGAAUGGGACCAA [G39C C86A], the self-cleavage is 0.261.

Regarding GGCCGGCAUGGUCCCAGCCUCCUCGCUGGCGCCGGCUGCGCAACAUUCCGAGGGGACCGUCCCCUCGGUAAUGCCGAAUGGGACCCA [G39C G74C], the self-cleavage worked out at 0.166.

As to GGCCGGCAUGGUCCCAGCCUCCUCGCUGGCGCCGGCUGCGCAACAUUCCGAGGGGACCGUCCCCUCGGUAAUGUCGAAUGGGACCCA [G39C G74U], the self-cleavage was 0.251.

Consider GGCCGGCAUGGUCCCAGCCUCCUCGCUGGCGCCGGCUGCGCAACAUUCCGAGGGGACCGUCCCCUCGGUAAUGGUGAAUGGGACCCA [G39C C75U], for which the self-cleavage amounted to 0.0583.

Turning to GGCCGGCAUGGUCCCAGCCUCCUCGCUGGCGCCGGCUGCGCAACAUUCCGAGGGGACCGUCCCCUCGGUAAUGGAGAAUGGGACCCA [G39C C75A], the self-cleavage came to 0.142.

GGCCGGCAUGGUCCCAGCCUCCUCGCUGGCGCCGGCUGCGCAACAUUCCGAGGGGACCGUCCCCUCGGUAAUGGGGAAUGGGACCCA [G39C C75G]: the self-cleavage is 0.0831.

On to GGCCGGCAUGGUCCCAGCCUCCUCGCUGGCGCCGGCUGCGCAACAUUCCGAGGGGACCGUCCCCUAGGUAAUGGCGAAUGGGACCCA [G39C C66A], for which the self-cleavage is 0.361.

As to GGCCGGCAUGGUCCCAGCCUCCUCGCUGGCGCCGGCUGCGCAACAUUCCGAGGGGACCGUCCCCUGGGUAAUGGCGAAUGGGACCCA [G39C C66G], the self-cleavage amounted to 0.185.

Turning to GGCCGGCAUGGUCCCAGCCUCCUCGCUGGCGCCGGCUGCGCAACAUUCCGAGGGGACCGUCCCCUCGGUAAUGGCCAAUGGGACCCA [G39C G76C], the self-cleavage worked out at 0.514.

On to GGCCGGCAUGGUCCCAGCCUCCUCGCUGGCGCCGGCUGCGCAACAUUCCGAGGGGACCGUCCCCUCUGUAAUGGCGAAUGGGACCCA [G39C G67U], for which the self-cleavage is 0.277.

With GGCCGGCAUGGUCCCAGCCUCCUCGCUGGCGCCGGCUGCGCAACAUUCCGAGGGGACCGUCCCUUCGGUAAUGGCGAAUGGGACCCA [G39C C64U], the self-cleavage is 0.224.

Regarding GGCCGGCAUGGUCCCAGCCUCCUCGCUGGCGCCGGCUGCGCAACAUUCCGAGGGGACCGUCCCCUCGGUAAUGGCGAAUGGGAACCA [G39C C84A], the self-cleavage was determined as 0.19.

As for GGCCGGCAUGGUCCCAGCCUCCUCGCUGGCGCCGGCUGCGCAACAUUCCGAGGGGACCGUCCCCUCGGUAAUGGCGAAUGGGAGCCA [G39C C84G], the self-cleavage came out at 0.0462.

Consider GGCCGGCAUGGUCCCAGCCUCCUCGCUGGCGCCGGCUGCGCAACAUUCCGAGGUGACCGUCCCCUCGGUAAUGGCGAAUGGGACCCA [G39C G54U], for which the self-cleavage was 0.222.

For GGCCGGCAUGGUCCCAGCCUCCUCGCUGGCGCCGGCUGCGCAACAUUCCGAGGCGACCGUCCCCUCGGUAAUGGCGAAUGGGACCCA [G39C G54C], the self-cleavage was found to be 0.253.

For GGCCGGCAUGGUCCCAGCCUCCUCGCUGGCGCCGGCUGCGCAACAUUCCGAUGGGACCGUCCCCUCGGUAAUGGCGAAUGGGACCCA [G39C G52U], the self-cleavage is 0.253.

Consider GGCCGGCAUGGUCCCAGCCUCCUCGCUGGCGCCGGCUGCGCAACAUUCCGAAGGGACCGUCCCCUCGGUAAUGGCGAAUGGGACCCA [G39C G52A], for which the self-cleavage amounted to 0.218.

GGCCGGCAUGGUCCCAGCCUCCUCGCUGGCGCCGGCUGCGCAACAUUCCGAGGGGACCGUCCCCUCGUUAAUGGCGAAUGGGACCCA [G39C G68U]: the self-cleavage is 0.246.

On to GGCCGGCAUGGUCCCAGCCUCCUCGCUGGCGCCGGCUGCGCAACAUUCCGAGGGGACCGUCCCCUCGAUAAUGGCGAAUGGGACCCA [G39C G68A], for which the self-cleavage was 0.241.

Consider GGCCGGCAUGGUCCCAGCCUCCUCGCUGGCGCCGGCUGCGCAACAAUCCGAGGGGACCGUCCCCUCGGUAAUGGCGAAUGGGACCCA [G39C U46A], for which the self-cleavage amounted to 0.19.

Turning to GGCCGGCAUGGUCCCAGCCUCCUCGCUGGCGCCGGCUGCGCAACAUUCCGAGGGGACCGUCCCCUCGGUAAUGGCGAAUCGGACCCA [G39C G80C], the self-cleavage came to 0.0845.

As for GGCCGGCAUGGUCCCAGCCUCCUCGCUGGCGCCGGCUGCGCAACAUUCCGAGGGGACCGUCCCCUCGGUAAUGGCGAAUAGGACCCA [G39C G80A], the self-cleavage came to 0.0511.

Turning to GGCCGGCAUGGUCCCAGCCUCCUCGCUGGCGCCGGCUGCGCAACAUUCCGAGGGGACCGUCCCCUCGGUAAUGGCGAAUGCGACCCA [G39C G81C], the self-cleavage came to 0.089.

GGCCGGCAUGGUCCCAGCCUCCUCGCUGGCGCCGGCUGCGCAACAUUCCGAGGGGACCGUCCCCUCGGUAAUAGCGAAUGGGACCCA [G39C G73A]: the self-cleavage amounted to 0.0339.

On to GGCCGGCAUGGUCCCAGCCUCCUCGCUGGCGCCGGCUGCGCAACAUUCCCAGGGGACCGUCCCCUCGGUAAUGGCGAAUGGGACCCA [G39C G50C], for which the self-cleavage was found to be 0.104.

Turning to GGCCGGCAUGGUCCCAGCCUCCUCGCUGGCGCCGGCUGCGCAACAUUCCUAGGGGACCGUCCCCUCGGUAAUGGCGAAUGGGACCCA [G39C G50U], the self-cleavage was determined as 0.345.

GGCCGGCAUGGUCCCAGCCUCCUCGCUGGCGCCGGCUGCGCAACAUUCCGAGGGGACCGUCCCCUCGGUAAUGGCGAAUGGGACUCA [G39C C85U]: the self-cleavage was 0.405.

On to GGCCGGCAUGGUCCCAGCCUCCUCGCUGGCGCCGGCUGCGCAACAUUCCGAGGGGACCGUCCCCUCGGUAAUGGCGAAUGGGACGCA [G39C C85G], for which the self-cleavage is 0.298.

As for GGCCGGCAUGGUCCCAGCCUCCUCGCUGGCGCCGGCUGCGCAACAUUCCGAGGGGACCGUCCCCUCGGUAAUGGCGAAUGGGACACA [G39C C85A], the self-cleavage was 0.203.

In the case of GGCCGGCAUGGUCCCAGCCUCCUCGCUGGCGCCGGCUGCGCAACAUUCCGAGGGGACCUUCCCCUCGGUAAUGGCGAAUGGGACCCA [G39C G59U], the self-cleavage turned out to be 0.147.
